PMC2734569, “Functional mapping of the fission yeast DNA polymerase δ B-subunit Cdc1 by site-directed and random pentapeptide insertion mutagenesis” (BMC Molecular Biology, 2009)

How the values were obtained:
Assay in all cases: two-hybrid; LexA-Cdc1 bait (pBTM116 or pBTM116BN) with Gal4 activation domain-Cdc27 prey (pGAD2F-Cdc27) in S. cerevisiae CTY10-5d; ONPG liquid culture beta-galactosidase assay, mean of triplicates, as percent of wild-type Cdc1
Details in all cases: partners not purified
[1] = biological target: T1, Cdc1-J21 (Schizosaccharomyces pombe, UniProt P87324 1-462, Leu-GlyValProGlnLeu-Asp)
T1 construct: Cdc1, S. pombe, with a pentapeptide inserted after residue 275; source: yeast two-hybrid fusion, in S. cerevisiae CTY10-5d
T1 sequence (looked up): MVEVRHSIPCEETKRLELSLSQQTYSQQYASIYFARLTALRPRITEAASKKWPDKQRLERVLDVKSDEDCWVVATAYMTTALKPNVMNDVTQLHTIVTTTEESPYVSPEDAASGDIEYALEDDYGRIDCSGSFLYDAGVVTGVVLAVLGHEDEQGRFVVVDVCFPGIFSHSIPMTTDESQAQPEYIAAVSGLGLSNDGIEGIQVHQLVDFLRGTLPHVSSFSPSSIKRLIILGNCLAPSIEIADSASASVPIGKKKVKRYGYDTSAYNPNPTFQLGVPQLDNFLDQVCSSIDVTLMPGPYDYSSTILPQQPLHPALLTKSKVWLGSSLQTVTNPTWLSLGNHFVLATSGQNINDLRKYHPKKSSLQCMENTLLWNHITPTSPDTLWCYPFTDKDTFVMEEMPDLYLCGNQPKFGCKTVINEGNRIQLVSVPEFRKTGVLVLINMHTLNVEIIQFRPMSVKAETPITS

[2] = biological target: T2, Cdc1-J12 (Schizosaccharomyces pombe, UniProt P87324 1-462, Ser-GlyValProHisSer-Ile)
T2 construct: Cdc1, S. pombe, with a pentapeptide inserted after residue 7; source: yeast two-hybrid fusion, in S. cerevisiae CTY10-5d
T2 sequence (looked up): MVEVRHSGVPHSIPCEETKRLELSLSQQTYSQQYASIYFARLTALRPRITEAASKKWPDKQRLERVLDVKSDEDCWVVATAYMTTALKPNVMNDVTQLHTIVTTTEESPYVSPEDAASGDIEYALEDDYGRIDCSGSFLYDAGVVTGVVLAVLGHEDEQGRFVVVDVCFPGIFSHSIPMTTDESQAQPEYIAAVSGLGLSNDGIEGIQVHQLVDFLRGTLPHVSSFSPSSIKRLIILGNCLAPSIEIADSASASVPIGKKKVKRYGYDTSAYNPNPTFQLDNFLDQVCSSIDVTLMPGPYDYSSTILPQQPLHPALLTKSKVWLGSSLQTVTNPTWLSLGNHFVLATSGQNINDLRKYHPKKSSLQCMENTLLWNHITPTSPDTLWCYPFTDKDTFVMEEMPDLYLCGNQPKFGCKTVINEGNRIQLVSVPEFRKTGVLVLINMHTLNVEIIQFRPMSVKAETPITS

[3] = biological target: T3, Cdc1-J10 (Schizosaccharomyces pombe, UniProt P87324 1-462, Tyr-ArgGlyThrProTyr-Met)
T3 construct: Cdc1, S. pombe, with a pentapeptide inserted after residue 77; also called J11; E6; source: yeast two-hybrid fusion, in S. cerevisiae CTY10-5d
T3 sequence (looked up): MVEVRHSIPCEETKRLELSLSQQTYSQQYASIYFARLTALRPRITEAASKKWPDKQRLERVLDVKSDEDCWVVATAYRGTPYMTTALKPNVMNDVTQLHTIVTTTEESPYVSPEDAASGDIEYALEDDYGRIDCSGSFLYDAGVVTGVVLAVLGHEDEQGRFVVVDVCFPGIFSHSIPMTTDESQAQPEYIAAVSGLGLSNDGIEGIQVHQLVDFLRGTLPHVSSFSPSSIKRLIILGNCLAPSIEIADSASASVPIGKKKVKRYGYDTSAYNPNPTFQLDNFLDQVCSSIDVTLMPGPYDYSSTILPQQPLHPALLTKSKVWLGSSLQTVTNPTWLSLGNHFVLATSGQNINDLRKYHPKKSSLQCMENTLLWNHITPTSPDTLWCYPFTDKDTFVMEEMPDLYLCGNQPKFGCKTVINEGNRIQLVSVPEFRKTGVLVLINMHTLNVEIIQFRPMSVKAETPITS

[4] = biological target: T4, Cdc1-E5 (Schizosaccharomyces pombe, UniProt P87324 1-462, Val-MetGlyTyrProVal-Met)
T4 construct: Cdc1, S. pombe, with a pentapeptide inserted after residue 86; source: yeast two-hybrid fusion, in S. cerevisiae CTY10-5d
T4 sequence (looked up): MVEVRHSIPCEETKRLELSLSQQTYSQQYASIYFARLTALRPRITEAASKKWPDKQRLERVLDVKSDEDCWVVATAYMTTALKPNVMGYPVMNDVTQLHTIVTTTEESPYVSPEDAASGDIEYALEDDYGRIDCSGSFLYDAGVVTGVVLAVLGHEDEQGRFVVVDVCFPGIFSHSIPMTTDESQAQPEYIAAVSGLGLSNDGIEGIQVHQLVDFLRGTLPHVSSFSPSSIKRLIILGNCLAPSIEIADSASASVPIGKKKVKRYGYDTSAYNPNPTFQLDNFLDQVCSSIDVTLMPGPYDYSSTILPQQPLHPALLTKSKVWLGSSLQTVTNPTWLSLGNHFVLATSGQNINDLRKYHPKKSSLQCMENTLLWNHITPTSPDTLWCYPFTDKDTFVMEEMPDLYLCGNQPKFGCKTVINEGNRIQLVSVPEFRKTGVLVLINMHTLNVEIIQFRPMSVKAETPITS

two-hybrid beta-galactosidase activity, % of wild-type Cdc1 [1]: < 1% | two-hybrid beta-galactosidase activity, % of wild-type Cdc1 [2]: 59% | two-hybrid beta-galactosidase activity, % of wild-type Cdc1 [3]: 30% | two-hybrid beta-galactosidase activity, % of wild-type Cdc1 [4]: 88%
B1: Cdc27 (fission yeast DNA polymerase delta C-subunit) (natural protein, Schizosaccharomyces pombe, UniProt P30261 1-372, looked up)
chain: MEEWRNFLDIKVINESSLVTVDNLSLQLDISSEKAQEYLNMFYQGNDFLYPIYLIHGQPIDDEINLEIDEESQPISNFPVLQYILCDKSSLQEKQSRLKSGYKTVIFALSSAPLSDFDELLPAVYEIREKDVLYKKEDADKYGFIFNENSVPRVLKKAPSTHSPQLSVPSKTSTIDKTDTRSTEKTKGKDIFSNARNQKGNSSRKNKKAPLENHKEKEPLLPKEEKLSEQAKRERDDLKNIMQLEDESVSTTSVHDSEDDNLDSNNFQLEIGTEAKSAAPDEPQEIIKSVSGGKRRGKRKVKKYATTKDEEGFLVTKEEEVWESFSEDENISTGTSNVVRNKPTTVNIATKKKNTAQSKPQQKSIMSFFGKK
notes: DNA polymerase delta C-subunit Cdc27, S. pombe; prey plasmid pGAD2F-Cdc27; also called pGAD2F-Cdc27; source: yeast two-hybrid fusion, in S. cerevisiae CTY10-5d
